This is an account of results in patent publication EP0701605B2, “IMPROVED ENZYMES AND DETERGENTS CONTAINING THEM” (BASF SE, priority 1994, dated 1995).

Substrate in this series: C[C@H](NC(=O)CCC(=O)O)C(=O)N[C@@H](C)C(=O)N1CCC[C@H]1C(=O)N[C@@H](Cc1ccccc1)C(=O)Nc1ccc([N+](=O)[O-])cc1
Put plainly: AAPF-pNA assay, kinetic parameters. The format is biochemical, Bacillus lentus DSM 5483. As to conditions: 100 mM Tris pH 8.6, 25°C. The procedure: Two different protease assays were used. With the HPE method protease activity was established at a single concentration of casein as substrate. In the AAPF-pNA assay initial rates of succinyl-L-alanyl-L-alanyl-L-prolyi-L-phenylalanyl-p-nitroanilide (AAPF-pNA; Bachem Bioscience, Philadelphia, PA) supported catalysis were used to determine the kinetic parameters Km, kcat, and kcat/Km.
Protease samples were diluted with 50% (v/v) 1,2-propanediol in 100 mM Tris, adjusted with 2 N HCl to pH 8.6 at 25°C ('Tris-propanediol buffer'), in which they were stable for at least 6 h at room temperature. A stock solution of 160 mM AAPF-pNA was prepared in dimethylsulfoxide dried over molecular sieve beads (Aldrich; 4 A, 4-8 mesh) for at least 24 h prior to use. Fixed point assays were performed at 25°C with 1.6 mM AAPF-pNA in 100 mM Tris, adjusted with 2 N HCl to pH 8.6 at 25°C, in a total volume of 1.020 ml. The substrate was added to the assay buffer 1 minute prior to the assay initiation and the reaction was started by addition of enzyme at a final concentration of 20 ng to 1.3 µg of protein per ml (0.75 to 48.5 nM enzyme) depending on specific activity. Release of p-nitroanilide was monitored at 410 nm, and a molar extinction coefficient of 8,480 M^-1cm^-1 was used to calculate amount and concentration of product formed (DelMar, E.G., Largman, C., Brodrick, J.W., and Geokas, M.C. (1979) Anal Biochem. 99, 316-320).
Kinetic parameters were calculated from a velocity vs. substrate concentration plot constructed from initial rates measured once each at 12 different AAPF-pNA concentrations ranging from 0.16 to 3.2 mM. Data were fitted to a hyperbolic curve and proportionally weighted using the program ENZFITTER (Leatherbarrow, R.J. (1987) ENZFITTER. Biosoft, Cambridge, UK). A nominal molecular weight of 26.8 kDa was used in all calculations that required the interconversion of protein concentration and molarity of protease enzyme (Table 4).

Where [1] appears, read: other: F54, AAPF-pNA 0.16 to 3.2 mM.
Where [2] appears, read: other: F55, AAPF-pNA 0.16 to 3.2 mM.
[3] abbreviates: other: F49, AAPF-pNA 0.16 to 3.2 mM.
The mark [4] stands for this setting: other: F45, AAPF-pNA 0.16 to 3.2 mM.
The mark [5] stands for this setting: other: M131, AAPF-pNA 0.16 to 3.2 mM.
[6] abbreviates: other: F46, AAPF-pNA 0.16 to 3.2 mM.
Setting [7] is: other: F47, AAPF-pNA 0.16 to 3.2 mM.
[8] abbreviates: other: F43, AAPF-pNA 0.16 to 3.2 mM.
Setting [9] is: other: F11, AAPF-pNA 0.16 to 3.2 mM.
[10] abbreviates: other: F44, AAPF-pNA 0.16 to 3.2 mM.

Numbering of substitutions follows the chain as printed. In names and notes the source's numbering stands.

B1: Bacillus lentus DSM 5483 alkaline protease (BLAP) variant F54, S3T + V41 + R99G + A188P + V193M + V199I + L211D, SEQ ID NO:17 (Lederbergia lenta; … (protein)
chain: AQTIPWGISRVQAPAAHNRGLTGSGVKVAVLDTGISTHPDLNIRGGASFVPGEPSTQDGNGHGTHVAGTIAALNNSIGVLGVAPSAELYAVKVLGADGGGAISSIAQGLEWAGNNGMHVANLSLGSPSPSATLEQAVNSATSRGVLVVAASGNSGASSISYPARYANAMAVGATDQNNNRASFSQYGPGLDIMAPGVNIQSTYPGSTYASDNGTSMATPHVAGAAALVKQKNPSWSNVQIRNHLKNTATSLGSTNLYGSGLVNAEAATR
notes: made in house; host or cells: Bacillus subtilis DB104
The Km is the concentration of substrate that gives half-maximal velocity. For orientation: kcat means the number of substrate molecules converted per active site and unit of time at saturation. By kcat/Km is commonly meant the second-order rate constant that governs catalysis at low substrate concentration. As to B1, under setting [1], the Km was found to be 5500 µM, the kcat was 7 s⁻¹ and the kcat/Km is 1300 M⁻¹ s⁻¹.

B2: Bacillus lentus DSM 5483 alkaline protease (BLAP) variant F55, S3T + V41 + S154E + A188P + V193M + V1991 + L211D, SEQ ID NO:18 (Lederbergia lenta; … (protein)
chain: B1 chain with G99R, S154E
notes: as for B1
On to B2, for which, under setting [2], the Km is 4300 µM, the kcat is 11 s⁻¹ and the specificity constant (kcat/Km) stood at 2600 M⁻¹ s⁻¹.

B3: Bacillus lentus DSM 5483 alkaline protease (BLAP) variant F49, S3T + V4I + A188P + V193M + V1991 + L211D, SEQ ID NO:16 (Lederbergia lenta; … (protein)
chain: B1 chain with G99R
notes: as for B1
As for B3, under setting [3], the Km was found to be 3500 µM, the kcat turned out to be 38 s⁻¹ and the kcat/Km was found to be 11000 M⁻¹ s⁻¹.

B4: Bacillus lentus DSM 5483 alkaline protease (BLAP) variant F45, S3T + V41 + R99S + A188P + V193M + V1991, SEQ ID NO:13 (Lederbergia lenta; … (protein)
chain: B1 chain with G99S, D211L
notes: as for B1
As for B4, under setting [4], the Km is 3050 µM, the kcat was 208 s⁻¹ and the kcat/Km was 68000 M⁻¹ s⁻¹.

B5: Bacillus lentus DSM 5483 alkaline protease (BLAP) variant M131, S3T + V41 + A188P + V193M + V1991, SEQ ID NO: 24 (Lederbergia lenta; A188P/S3T/V193M/V199I/V4I) (protein)
chain: B1 chain with G99R, D211L
notes: site-specific mutagenesis of DNA encoding the mature form of wild type BLAP; made in house; host or cells: Bacillus subtilis DB104
On to B5, for which, under setting [5], the Km amounted to 980 µM, the kcat is 153 s⁻¹ and the kcat/Km amounted to 156000 M⁻¹ s⁻¹.

B6: Bacillus lentus DSM 5483 alkaline protease (BLAP) variant F46, S3T + V41 + S154E + A188P + V193M + V1991, SEQ ID NO:14 (Lederbergia lenta; … (protein)
chain: B1 chain with G99R, S154E, D211L
notes: as for B1
In the case of B6, under setting [6], the Km was found to be 2000 µM, the kcat amounted to 358 s⁻¹ and the specificity constant (kcat/Km) is 179000 M⁻¹ s⁻¹.

B7: Bacillus lentus DSM 5483 alkaline protease (BLAP) variant F47, S3T + V41 + S154D + A188P + V193M + V1991, SEQ ID NO:15 (Lederbergia lenta; … (protein)
chain: B1 chain with G99R, S154D, D211L
notes: as for B1
As for B7, under setting [7], the Km was determined as 2000 µM, the kcat was determined as 249 s⁻¹ and the catalytic efficiency (kcat/Km) was 124000 M⁻¹ s⁻¹.

B8: Bacillus lentus DSM 5483 alkaline protease (BLAP) variant F43, S3T + V41 + R99G + A188P + V193M + V1991, SEQ ID NO:11 (Lederbergia lenta; … (protein)
chain: B1 chain with D211L
notes: as for B1
For the protein B8, under setting [8], the Michaelis constant (Km) came out at 1730 µM, the kcat turned out to be 171 s⁻¹ and the kcat/Km came to 99000 M⁻¹ s⁻¹.

B9: Bacillus lentus DSM 5483 alkaline protease (BLAP) variant F11, S3T + R99S + A188P + V193M + V1991, SEQ ID NO:10 (Lederbergia lenta; A188P/R99S/S3T/V193M/V199I) (protein)
chain: B1 chain with I4V, G99S, D211L
notes: as for B1
As for B9, under setting [9], the Km was determined as 1880 µM, the kcat is 174 s⁻¹ and the catalytic efficiency (kcat/Km) was determined as 92000 M⁻¹ s⁻¹.

B10: Bacillus lentus DSM 5483 alkaline protease (BLAP) variant F44, S3T + V41 + R99A + A188P + V193M + V1991, SEQ ID NO:12 (Lederbergia lenta; … (protein)
chain: B1 chain with G99A, D211L
notes: as for B1
As to B10, under setting [10], the Km amounted to 2490 µM, the kcat was determined as 257 s⁻¹ and the kcat/Km is 103000 M⁻¹ s⁻¹.
